According to patent publication US20080227696A1 (BIOSURFACE ENGINEERING TECHNOLOGIES, published 2008):
Where no end group is shown, it is not given here. [ ]: non-standard residue; d: D form. Ahx = NCCCCCC(=O)O

Molecular target: T1, Soluble PDGF receptor, recombinant chimera of human PDGF-R-alpha (R&D Systems) (human, UniProt P16234 24-524)
T1 construct: Bought from R&D Systems; immobilized on a CM5 chip by EDC/NHS; not shown: called a recombinant chimera
Test: SPR, BIAcore 2000, receptor immobilized on CM5 chip, peptide as analyte, 1:1 global fit
Protocol: Surface Plasmon Resonance (SPR) Analysis. Real-time biomolecular interactions were analyzed with a BIAcore 2000 system (Biacore Inc., Piscataway, N.J.). Soluble PDGF receptor, recombinant chimera of human PDGF-R-alpha and PSGF-R-beta (R &D Systems, Minneapolis, Minn.), was immobilized on research grade CM5 chips (Biacore Inc., Piscataway, N.J.). Following activation with EDC/NHS, the receptors were immobilized on activated CM5 chips. To obtain kinetic data, different concentrations of analytes in HBS-EP buffer were injected over the sensor chip at a flow rate of 50 μl/min. Peptide binding was measured in resonance units (RU). At the end of each sample injection (120 s) buffer was passed over the sensor surface to monitor the dissociation phase. Reference responses from blank flow cells were subtracted from receptor-containing flow cells for each analyte injection and the kinetic parameters for each interaction were determined by globally fitting the experimental data to a 1:1 interaction with BIAEVALUATION software (Biacore Inc., Piscataway, N.J.). The association rate constant and the dissociation rate constant (kₐ and kd, respectively), and the equilibrium dissociation constant (KD) are presented in the Table 4 for the receptors and PBA2-1.

T1 sequence (P16234 24-524, change not shown): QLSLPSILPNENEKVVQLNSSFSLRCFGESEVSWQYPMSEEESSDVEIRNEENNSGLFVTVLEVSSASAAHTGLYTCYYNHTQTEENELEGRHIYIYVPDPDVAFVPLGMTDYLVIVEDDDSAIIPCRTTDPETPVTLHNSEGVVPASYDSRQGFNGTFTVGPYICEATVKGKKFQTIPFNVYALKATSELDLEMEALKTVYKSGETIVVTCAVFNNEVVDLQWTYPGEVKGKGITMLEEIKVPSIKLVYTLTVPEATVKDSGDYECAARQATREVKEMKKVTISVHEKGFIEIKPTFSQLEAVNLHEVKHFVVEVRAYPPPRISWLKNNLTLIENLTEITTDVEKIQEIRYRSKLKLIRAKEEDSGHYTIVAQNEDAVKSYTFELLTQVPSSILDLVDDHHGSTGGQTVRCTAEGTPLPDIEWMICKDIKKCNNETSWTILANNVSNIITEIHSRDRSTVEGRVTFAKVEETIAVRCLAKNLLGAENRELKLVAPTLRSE

B1: PBA2-1 (peptide)
chain 1: VRKIEIVRKKK[Ahx][Ahx][Ahx]RKRKLERIAR-NH2
chain 2: VRKIEIVRKK
modifications: also: chain 2 bound through its C-terminus to the side chain of Lys11 of chain 1 (branched homodimer), bond at chain A 11 to a chain's C-terminus
notes: also called mimetic of PDGF; PDGF analog PBA2-1
Kd: 23.3 nM
